# B1: His6-tagged SFPQ-276–535 L534I (domain or fragment, human, UniProt P23246 276-535, looked up)
# chain: EGFKANLSLLRRPGEKTYTQRCRLFVGNLPADITEDEFKRLFAKYGEPGEVFINKGKGFGFIKLESRALAEIAKAELDDTPMRGRQLRVRFATHAAALSVRNLSPYVSNELLEEAFSQFGPIERAVVIVDDRGRSTGKGIVEFASKPAARKAFERCSEGVFLLTTTPRPVIVEPLEQLDDEDGLPEKLAQKNPMYQKERETPPRFAQHGTFEYEYSQRWKSLDEMEKQQREQVEKNMKDAKDKLESEMEDAYHEHQANIL
# Target: the molecule itself
# Assay: crystal structure
protein,measurement,value
B1,binding result,binds
